Data reported in US20210130452A1 (Merck KGaA, published 2021).

T1: marmoset IL-17A (marmoset, IL-17A is a disulfide-linked homodimer. One chain is given.)
T1 chain: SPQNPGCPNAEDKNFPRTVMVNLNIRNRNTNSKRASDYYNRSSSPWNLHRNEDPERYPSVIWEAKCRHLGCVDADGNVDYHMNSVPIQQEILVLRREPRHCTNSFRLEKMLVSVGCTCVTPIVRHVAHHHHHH

T2: mouse IL-17A (mouse, UniProt Q62386 26-158)
T2 sequence (looked up): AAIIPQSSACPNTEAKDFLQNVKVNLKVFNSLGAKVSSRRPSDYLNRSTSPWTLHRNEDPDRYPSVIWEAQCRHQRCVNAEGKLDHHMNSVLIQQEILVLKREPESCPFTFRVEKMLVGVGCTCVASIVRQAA

T3: rat IL-17A (rat, UniProt Q61453 18-150, limits assumed)
T3 sequence (looked up): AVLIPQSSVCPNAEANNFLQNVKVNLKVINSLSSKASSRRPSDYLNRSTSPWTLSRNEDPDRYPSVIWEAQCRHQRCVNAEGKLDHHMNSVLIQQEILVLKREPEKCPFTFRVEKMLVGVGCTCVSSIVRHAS

T4: human IL-17F (human, UniProt Q96PD4 31-163)
T4 construct: GenBank AF384857, expressed in Hek293 as 6-His C-terminal tagged protein; also called hIL-17F; IL-17F-6HIS
T4 sequence: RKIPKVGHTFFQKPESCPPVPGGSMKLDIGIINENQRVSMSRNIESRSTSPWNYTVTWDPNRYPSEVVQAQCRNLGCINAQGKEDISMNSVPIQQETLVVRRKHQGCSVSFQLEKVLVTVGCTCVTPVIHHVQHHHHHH

T5: marmoset IL-17F (marmoset, UniProt A6N6I9 31-163)
T5 sequence (looked up): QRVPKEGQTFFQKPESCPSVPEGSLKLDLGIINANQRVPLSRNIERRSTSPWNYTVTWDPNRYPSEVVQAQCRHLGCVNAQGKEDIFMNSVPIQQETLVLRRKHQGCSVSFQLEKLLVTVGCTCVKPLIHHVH

T6: mouse IL-17F (mouse, UniProt Q7TNI7 29-161)
T6 sequence (looked up): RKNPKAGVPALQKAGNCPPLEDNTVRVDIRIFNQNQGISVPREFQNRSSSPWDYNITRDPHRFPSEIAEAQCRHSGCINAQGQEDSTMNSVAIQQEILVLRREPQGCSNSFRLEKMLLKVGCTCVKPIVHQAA

T7: rat IL-17F (rat, UniProt Q5BJ95 29-161)
T7 sequence (looked up): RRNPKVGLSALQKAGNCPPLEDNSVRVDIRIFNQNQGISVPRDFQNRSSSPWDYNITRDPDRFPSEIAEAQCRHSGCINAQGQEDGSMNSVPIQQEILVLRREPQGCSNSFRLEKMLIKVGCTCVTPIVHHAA

T8: human IL-17F (human, UniProt Q96PD4 31-163, biotinylated with Sulfo-NHS-LC-Biotin in the AlphaScreen assays only)
T8 sequence: T4 sequence

T9: human IL-17F (human, UniProt Q96PD4 31-163)
T9 construct: made in Hek293 cells (GenBank AF384857); also called hIL-17F; hIL17F
T9 sequence: T4 sequence

B1: 11A06 (VHH)
VHH: EVQLVESGGGLVQPGESLRLSCKASGFSLDYYALGWFRQAPGKEREGISCITSSDASAYYTDSVKGRFTISRDNSKNTVYLQMNSLKTEDTAIYYCAAALLTCSSYYDAYTYWGQGTQVTVSS
notes: Class 2
B2: 09G10 (VHH)
VHH: EVQLVESGGGLVQAGGSLRLSCAASDSVFTAKAVGWYRQPPGLQREWVAIITSGGKTNYADSSVKGRFTVSVDKVKNTVTLQMNSLKPEDTAVYYCYAQWMGRDYWGQGTQVTVSS
notes: Class 2
B3: 10A04 (VHH)
VHH: EVQLVESGGGLVQPGGSLRLSCAASGFTFSSYWMYWVRQAPGKGLEWISALAPGGGNRYYAESVNGRFTISRDNAKNSLYLQMNSLKSEDTAVYYCAKDHNVGYRTGEYDYGGQGTQVTVSS
notes: Class 4 Nanobody (cross-reactive: anti-IL-17A, IL-17F and IL-17A/F); not shown: c-myc, His6 tag
B4: IL17MS3056 (VHH)
VHH: EVQLVESGGGLVQPGGSLRLSCAASGRTFSSYVVGWFRQAPGKEREFVGAISGSGDSIYYAVSEKDRFTISRDNSKNTLYLQMSSLRAEDTAVYYCTADQEFGYLRFGRSEYWGQGTLVTVSS
notes: variant of IL17MS16A04; Kabat numbering
B5: 13E02 (VHH)
VHH: EVQLVESGGGLVQAGGSLRLSCAASGRTYDAMGWLRQAPGKEREFVAAISGSGDDTYYADSVKGRFTISKDNAGITMYLQMNSLKPEDTAVYYCATRRGLYYVWDSNDYENWGQGTQVTVSS
notes: Class 4 Nanobody (cross-reactive: anti-IL-17A, IL-17F and IL-17A/F); also called IL17MS13E02; not shown: c-myc, His6 tag
B6: 13B03 (VHH)
VHH: EVQLVESGGGSVQAGDSLRLSCAASGRANSINWFGWFRQTPGKEREFVAGIRWSDAYTEYANSVKGRFTISRDNAKNTVDLQMDSLKPEDTAVYYCVLDLSTVRYWGQGTQVTVSS
notes: Class 4 Nanobody (cross-reactive: anti-IL-17A, IL-17F and IL-17A/F); also called IL17MS13B03; not shown: c-myc, His6 tag
B7: 04B09 (VHH)
VHH: EVQLVESGGGLVQPGGSLRLSCAASGFTLGYYAIGWFRQAPGKEREGVSCDSSSDGDTYYANSVKGRFTISTDNGKNTVYLQMNSLKPEDTAVYYCATCTDWNYDYWGQGTQVTVSS
notes: Class 2

Assays:
human IL-17A [1] = biological target: T10, human IL-17A (human, UniProt Q16552 24-155); test: ELISA, coated IL-17A
T10 construct: secreted form (GenBank U32659) expressed in Hek293 with C-terminal 6-His; also called hIL-17A; IL-17A-6HIS
T10 sequence (Q16552 other isoform, or with tags, fused parts or gaps): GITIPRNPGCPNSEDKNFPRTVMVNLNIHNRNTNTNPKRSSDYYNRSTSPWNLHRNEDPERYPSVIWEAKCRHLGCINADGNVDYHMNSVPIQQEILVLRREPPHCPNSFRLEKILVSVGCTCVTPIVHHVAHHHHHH
Description: (§1) Binding of a selected panel of anti-IL-17 Nanobodies to IL-17 of other species was assessed using a binding ELISA. […] HRP (horseradish peroxidase) conjugated anti-myc (Serotec, MCA 2200P) was used for detection using esTMB as substrate.

marmoset IL-17A = biological target: T1, marmoset IL-17A; test: ELISA, coated IL-17A
Description: as §1

mouse IL-17A = biological target: T2, mouse IL-17A; test: ELISA, coated IL-17A
Description: as §1

rat IL-17A = biological target: T3, rat IL-17A; test: ELISA, coated IL-17A
Description: as §1

guinea pig IL-17A = guinea pig IL-17A (guinea pig); test: ELISA, coated IL-17A
Description: as §1

human IL-17F [2] = biological target: T4, human IL-17F; test: ELISA, coated IL-17F;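 further: binding ELISA on coated antigen from various species, with bound Nanobodies revealed by an HRP-linked anti-myc antibody and esTMB substrate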
Description: as §1

marmoset IL-17F = biological target: T5, marmoset IL-17F; test: ELISA, coated IL-17F;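 further: binding ELISA on coated antigen from various species, with bound Nanobodies revealed by an HRP-linked anti-myc antibody and esTMB substrate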
Description: as §1

mouse IL-17F = biological target: T6, mouse IL-17F; test: ELISA, coated IL-17F;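 further: binding ELISA on coated antigen from various species, with bound Nanobodies revealed by an HRP-linked anti-myc antibody and esTMB substrate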
Description: as §1

rat IL-17F = biological target: T7, rat IL-17F; test: ELISA, coated IL-17F;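 further: binding ELISA on coated antigen from various species, with bound Nanobodies revealed by an HRP-linked anti-myc antibody and esTMB substrate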
Description: as §1

human IL-17A [3] = biological target: T10, human IL-17A; test: SPR, IL-17A-Nanobody complex over captured IL-17RA
Excerpt: The receptor (IL-17RA or IL-17RC) was captured via its human Fc-tail by an anti-human IgG-Fc antibody coated on the chip.

human IL-17A [4] = biological target: T11, human IL-17A (human, UniProt Q16552 24-155, biotinylated with Sulfo-NHS-LC-Biotin in the AlphaScreen assays only); test: cell-based or functional assay
T11 sequence (Q16552 other isoform, or with tags, fused parts or gaps): as above

human IL-17F [5] = biological target: T8, human IL-17F; test: cell-based or functional assay
[6] = biological target: T12, human IL-17A/F heterodimer (human, UniProt Q16552 24-155; Q96PD4 31-163, limits assumed, biotinylated with Sulfo-NHS-LC-Biotin in the AlphaScreen assays only); test: cell-based or functional assay
T12 sequence (Q16552 24-155 limits assumed, chain 1 of 2, one chain of several): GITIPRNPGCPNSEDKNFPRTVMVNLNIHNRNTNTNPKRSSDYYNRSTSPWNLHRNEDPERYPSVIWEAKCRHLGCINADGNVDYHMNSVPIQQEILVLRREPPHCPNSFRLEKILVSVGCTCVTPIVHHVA

human IL-17A [7] = biological target: T11, human IL-17A; test: AlphaScreen competition, hIL-17A - IL-17RA-Fc;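 further: receptor Fc-fusion plus Acceptor and streptavidin Donor beads incubated with the mixture for 1 h at room temperature before reading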
Description: (§2) To this mixture, the IL-17RA or IL-17RC Fc-fusions, Acceptor beads and the streptavidin Donor beads were added and further incubated for 1 hour at RT.

human IL-17A [8] = biological target: T11, human IL-17A; test: AlphaScreen competition, hIL-17A - IL-17RC-Fc;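 further: Read-out after 1 h at room temperature with the receptor Fc-fusion, Acceptor beads and streptavidin-coated Donor beads present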
Description: as §2

human IL-17F [9] = biological target: T8, human IL-17F; test: AlphaScreen competition, hIL-17F - IL-17RA-Fc
Description: as §2

human IL-17F [10] = biological target: T8, human IL-17F; test: AlphaScreen competition, hIL-17F - IL-17RC-Fc
Description: as §2

human IL-17F [11] = biological target: T8, human IL-17F; test: SPR Biacore, hIL-17F on chip; purified protein
Description: Off-rates of the periplasmic extracts containing anti-IL-17 Nanobodies were measured by Surface Plasmon Resonance (SPR) using a Biacore T100 instrument. […] Periplasmic extracts containing IL-17 neutralizing Nanobodies were injected for 2 minutes at a flow rate of 45 μl/min to allow binding to chip-bound antigen. Next, binding buffer without periplasmic extracts was sent over the chip at the same flow rate to allow spontaneous dissociation of bound Nanobody. From the sensorgrams obtained for the different periplasmic extracts koff-values (k₄) were calculated.

[12] = biological target: T12, human IL-17A/F heterodimer; test: AlphaScreen competition, hIL-17A/F - IL-17RA-Fc
Description: as §2

[13] = biological target: T12, human IL-17A/F heterodimer; test: AlphaScreen competition, hIL-17A/F - IL-17RC-Fc
Description: as §2

[14] = biological target: T12, human IL-17A/F heterodimer; test: SPR Biacore, hIL-17A/F on chip; purified protein
human IL-17A [15] = biological target: T11, human IL-17A; test: SPR Biacore, hIL-17A on chip; periplasmic extract (*)
human IL-17F [16] = biological target: T9, human IL-17F; test: SPR (Biacore) off-rate
[17] = biological target: T13, human IL-17A/F heterodimer (human, UniProt Q16552 24-155; Q96PD4 31-163, limits assumed); test: SPR (Biacore) off-rate
T13 construct: bought, made in E. coli (R&D Systems 5194-IL/CF); also called hIL-17A/F; hIL17A/F
T13 sequence (Q16552 24-155 limits assumed, chain 1 of 2, one chain of several): as above

human IL-17A [18] = biological target: T11, human IL-17A; test: SPR Biacore, hIL-17A on chip; purified protein

Binder | OD (mouse IL-17A) [OD] | OD (rat IL-17A) [OD] | OD (guinea pig IL-17A) [OD] | OD (human IL-17F [2]) [OD] | OD (marmoset IL-17F) [OD] | OD (rat IL-17F) [OD] | IL-17A-induced IL-6 production in HT-1080 cells, Emax (human IL-17A [4]) [%] | IL-17A-induced IL-6 production in HT-1080 cells, IC50 (human IL-17A [4]) [nM] | IL-17F-induced IL-6 production in HT-1080 cells, Emax (human IL-17F [5]) [%] | IL-17F-induced IL-6 production in HT-1080 cells, IC50 (human IL-17F [5]) [nM] | IL-17A/F-induced IL-6 production in HT-1080 cells, Emax [6] [%] | IL-17A/F-induced IL-6 production in HT-1080 cells, IC50 [6] [nM] | IC50 (human IL-17A [7]) [nM] | IC50 (human IL-17A [8]) [nM] | IC50 (human IL-17F [9]) [nM] | IC50 (human IL-17F [10]) [nM] | koff (human IL-17F [11]) [s⁻¹] | IC50 [12] [nM] | IC50 [13] [nM] | koff [14] [s⁻¹] | also measured
B1 | 0.004 | 0.008 | 0.007 | 0.673 | 0.0225 | 0.0045 |  |  |  |  |  |  |  |  |  |  |  |  |  |  | OD (human IL-17A [1]): 1.69 OD; OD (marmoset IL-17A): 1.71 OD; OD (mouse IL-17F): 0.0455 OD; % Biacore binding (IL-17A-NB)-IL-17RA (human IL-17A [3]): -0.35%
B2 | -0.001 | 0.003 | 0.006 | -0.018 | 0.0045 | 0.0025 |  |  |  |  |  |  |  |  |  |  |  |  |  |  | OD (human IL-17A [1]): 1.64 OD; OD (marmoset IL-17A): 1.58 OD; % Biacore binding (IL-17A-NB)-IL-17RA (human IL-17A [3]): 2.05%
B3 |  |  |  |  |  |  | 31.5 | 65.4 | 102 | 112 | 79.5 | 122 | 78.1 | > 250 | 0.746 | 0.22 | 0.0048 | 37.7 | 15.6 | 0.015 | koff (human IL-17A [15]): < 0.0002 s⁻¹
B4 |  |  |  |  |  |  |  |  |  |  |  |  |  |  |  |  |  |  |  |  | koff (human IL-17F [16]): 0.000514 s⁻¹; koff [17]: 0.00288 s⁻¹
B5 |  |  |  |  |  |  | 102 | 3.5 | 86.5 | 104 | 108 | 21.7 | 0.067 | 0.187 | 0.395 | 0.214 | 0.0036 | 0.071 | 0.117 | 7.1e-05 | koff (human IL-17A [18]): 0.00013 s⁻¹
B6 |  |  |  |  |  |  | 101 | 2.9 | 85.5 | 149 | 112 | 26.8 | 0.056 | 0.202 | 2.11 | 0.848 | 0.0058 | 0.079 | 0.031 | 3.6e-05 | koff (human IL-17A [18]): 6.3e-05 s⁻¹
B7 | 0 | 0.001 | 0.006 | -0.015 | 0.0025 | 0.0015 |  |  |  |  |  |  |  |  |  |  |  |  |  |  | 
